Measured values reported in patent US20240024519A1, “RADIOPHARMACEUTICAL COMPOSITIONS OF COPPER FOR TARGETED MOLECULAR IMAGING” (Curium US LLC, priority 2022, published 2024).

Assay: Radiochemical purity (RCP) of dose vials over time after formulation, radio-HPLC
Format: physicochemical
Conditions: 10 Ci batches, with and without SPE purification (both formulations); post-formulation, i.e. after end of synthesis
Description: Two 10 Ci batches of copper Cu-64 PSMA I&T were prepared, wherein the primary difference between them was removal of the purification step. During purification, a solid phase extraction cartridge was used to purify the product by removing radiolabeling buffer and remaining ^64Cu copper chloride starting material; however, this step requires concentration of the batch activity in a small volume (i.e., <1 mL), which can encourage radiolytic damage and result in detrimental impacts to radiochemical purity (RCP). This phenomenon was observed experimentally when comparing the radiochemical purity of copper Cu-64 PSMA I&T prepared with and without purification (FIG. 2). The removal of the purification step yielded a product with a higher RCP of 98.9% (FIG. 2B) versus 92.4% (FIG. 2A). The difference between the two purity profiles was that the primary radiolytic impurity (tR=16.8′-17.2′) was largely absent in the non-purified product. In both formulations, the RCP of individual dose vials prepared thereof was maintained over a period of 51 h post-formulation (i.e., 51 h after end of synthesis).

^64Cu-(3S, 7S, 26R, 29R, 32R, 37R)-29-benzyl-32(4-hydroxy-3-iodobenzyl)-5, 13, 20, 28, 31, 34-hexaoxo-37-(4,7,10-tris(carboxymethyl)-1, 4, 7, 10-tetraazacyclododecan-1-yl)-4, 6, 12, 21, 27, 30, 33-heptaazaheptatriacontane-1, 3, 7, 26, 37-pentacarboxylic acid [Cu-64 PSMA I&T]
period over which RCP of individual dose vials was maintained: 51 h
